Measured values reported in the DeepSol protein solubility set.

Assay: soluble on expression in E. coli; label from the status in PepcDB or PDB records

Row | Sequence | soluble on expression in E. coli
1 | MGSDKIHHHHHHMFHTIDFSDIFSSDYSNKISFKKGEIIHSYRDYEEKTPQIGAILEGTAVLEGPTNEGRWMINALIGQHSLFGMESLLETKTAPELTEYRVRALENGTVLFIDREFLLNYLYANPQFFHLILDEVIVRYLFTSKNYKNINQAPIVKVTRILVEIIELLHLHQTEGAIELPVYVTQTFLADYCRSSRARVTEVLEELRESGLLLSKKPITISSHENLLNQIDSFQTGNGLLTR | not soluble
2 | MGSDKIHHHHHHMFIINELNKIVNEEVISFHMPGHKKGQVYKKLGYKDILKNLYKMDTTEILGTDNLHFPEGIIKNSQKKASRVFKSDYTCYLVNGSSCGIQSAIMSVCSPKSKIITNRDCHQSVINGCILGDIDIEYVPCEISEETNVLKGISISNVIDIIDKNLDAKAVLLTYPTYYGMTYDLEYICNYAHSKKMVVIVDEAHGAHLGLSERLPKTALEQGADIVVQSTHKTLPAFTQSSMIHIQGDRVDIDKILNMLRITESSSPSYLLLSSLELAVDIYENKGKELMEELLNNIITFKNKVDSNINIYDTNDKTKIFISSKNMGLTGYELENILRNKYNIQVELSNYYGVLLICTIGNTAEDFSSLETALNNVVKEDFKFEKLENKKYPVVIPKKILTPREAFYKTKKSVKIYDSIGKVCGECIVPYPPGISVISPGEVISKEIIDYLMFCHSKGMIVSGLKDVDLNFIQVIDLEDI | not soluble
3 | MGSDKIHHHHHHMFKRETKDFINIDPLQTGGKLTEEARQALLEWGDGYSVCDFCTTGRLDEIKTPPIHDFIHNQLPKFLGCDVARVTNGAREAKFAVMHSLAKKDAWVVMDENCHYSSYVAAERAGLNIALVPKTDYPDYAITPENFAQTIEETKKRGEVVLALITYPDGNYGNLPDVKKIAKVCSEYDVPLLVNGAYAIGRMPVSLKEIGADFIVGSGHKSMAASGPIGVMGMKEEWAEIVLRRSEKYKNKEVELLGCTARGATIITLMASFPHVRERIKRWDEEVEKARRFAAEMEKLGIKQLGDNPHNHDLMFFHAEVLYEISKKAKGGRFFLYRELKSRKIHGIKPGLTRYFKLSTYGLSDEEVDYVLNAFKEIIEKYS | not soluble
4 | MGSDKIHHHHHHMFLEKLVEMARGKGKKLAVAAANDDHVIEAVYRAWRERVCEPVLFGPEEEITRIIEELVPEWKNPQIIDCPPEEAGRLAVEAVSKGECDFLMKGKIKTGDLMKIYLDERYGLRTGKTMAMVSVMEIPDFPRPLIISDPGMLISPTLEQKVDMIEHCVRVANVMGLETPKVAVVGAIEVVNPKMPITMEAAILSKMNQRGQIKGCIVDGPFALDNVVSEEAAKKKGIQSPVAGKADILILPDIEAANILYKALVFLAKAKSASTILGGKVPVVLTSRADSEETKFYSIALSAVFA | not soluble
5 | MGSDKIHHHHHHMFLKNCWYVAAWSHEIDRTLQPQTFLGENVVLYRKQDGTPVALEDACPHRKLPLSDGALQGDTVECGYHGLTFDCAGACVAAPTQKDAIPKRATVKSYPVVDRYRFTWIWMGDPAEADPDLIFPIPNFDDPTWGKTDGGVLDIDCNYLWVVDNLLDPSHVAWVHVTSFAGGGTDGAPLQVDKTEHGVQVTRWIFGEPPSPYYENLLAFQGPCDRLQHYEMTRPAMATNMSIYTPPGTGGYGRSPVENTFINISYNFMTPITEDKTRYFWFQHRNSEPDNVEMSETMNKGAVMAFHEDKAILEKVHTGMKHAVTPHIDLGLDAGAKTFRLGLQKAIETENA | not soluble
6 | MGSDKIHHHHHHMFLSELYRYPVKSGQAQSLKASPVGLLGLQGDRRWMVVEEENGRFLTQRAWPQLGQIDASDDDSGQLLLQAPGQAPLRVPVPPADDALRGVTIWRDTLRVPDAGDAAAAWLSELLGKAVRLVHCPEQRARYLPNGYGLNSDRAAFPDGFPLLLIGQGSLDELNRRIGRPMSMRRFRPNLVVQGAEPFAEDGWKRIRIGSLVFRVLKPSVRCIFTTIDPVTGERSADREPMATLKTFREKEGDVLFGQNLAVDGSGWLEVGMEVEILE | not soluble
7 | MGSDKIHHHHHHMFLSPYFLKQNQSISVSAQQASDFAKKIAQDFNPIHDVGAKRFCVPGDLLFALVLTQYGLSQSMKFTFAGMVGDGVELQFPEQVNDSFSICDNRDKTYLNVSRLGDISRCDAQTESFIRHYVAFSGHNFIDILMPLMKQHQVMINPDRPLVIYESMSFDLTTLDFVEVQLSLVQQELKIDGKRGDVTLHFELHSGDTLVGTGIKTLVMSGLRAYEEDQVQQMCAAYEGRKTDF | not soluble
